In FireProtDB (doi:10.1021/bi500238q):

B1: Dihydrofolate reductase, Q5KZ26 (parent)
chain: MISHIVAMDENRVIGKDNRLPWHLPADLAYFKRVTMGHAIVMGRKTFEAIGRPLPGRDNVVVTRNRSFRPEGCLVLHSLEEVKQWIASRADEVFIIGGAELFRATMPIVDRLYVTKIFASFPGDTFYPPISDDEWEIVSYTPGGKDEKNPYEHAFIIYERKKAK

Variants of: B1
Details: Geobacillus kaustophilus (strain HTA426); pH 7; Thermal; CD; Potassium Phosphate Buffer 10 mM; structure 1ZDR; whole UniProt chain shown

Variant | Tm [°C] | change of melting temperature, mutant - wild type (higher = more stable) [°C]
L20M | 61.4 | -4.8
L20M A104Q | 61.1 | -5.1
P129D | 64.6 | -1.6
P122E P129D | 65 | -1.2
P122E | 65.3 | -0.9
